The values below come from article PMC10415282, “High resolution cryo-EM and crystallographic snapshots of the actinobacterial two-in-one 2-oxoglutarate dehydrogenase” (Nature Communications, 2023).

The chains are these.
B1: Mycobacterium smegmatis KGD, full-length (enzyme, UniProt A0R2B1 1-1227, looked up)
chain: MSSSPSPFGQNEWLVEEMYRKFRDDPSSVDPSWHEFLVDYSPEPTTDSASNGRTTTAAPVTPPTPAPAPAPEPKAAPKPAAKTEAKPAKPAKSATPAKGDESQILRGAAAAVVKNMNASLEVPTATSVRAIPAKLMIDNRVVINNHLKRTRGGKISFTHLLGYAIVQAVKKFPNMNRHFAVVDGKPTAITPAHTNLGLAIDLQGKDGNRSLVVAAIKRCETMRFGQFIAAYEDIVRRARDGKLTAEDFSGVTISLTNPGTLGTVHSVPRLMQGQGAIIGAGAMEYPAEFQGASEERIADLGIGKLITLTSTYDHRIIQGAESGDFLRTIHQLLLDDDFFDEIFRELGIPYEPVRWRTDNPDSIEDKNARVIELIAAYRNRGHLMADIDPLRLDNTRFRSHPDLDVNSHGLTLWDLDREFKVDGFAGVQRKKLRDILSVLRDAYCRHVGVEYTHILEPEQQRWIQERVETKHDKPTVAEQKYILSKLNAAEAFETFLQTKYVGQKRFSLEGAETVIPMMDAVIDQCAEHGLDEVVIAMPHRGRLNVLANIVGKPYSQIFSEFEGNLNPSQAHGSGDVKYHLGATGTYIQMFGDNDIEVSLTANPSHLEAVDPVLEGLVRAKQDLLDTGEEGSDNRFSVVPLMLHGDAAFAGQGVVAETLNLALLRGYRTGGTIHIVVNNQIGFTTAPTDSRSSEYCTDVAKMIGAPIFHVNGDDPEACAWVARLAVDFRQAFKKDVVIDMLCYRRRGHNEGDDPSMTQPYMYDVIDTKRGSRKAYTEALIGRGDISMKEAEDALRDYQGQLERVFNEVRELEKHEIEPSESVEADQQIPSKLATAVDKAMLQRIGDAHLALPEGFTVHPRVRPVLEKRREMAYEGRIDWAFAELLALGSLIAEGKLVRLSGQDTQRGTFTQRHAVIVDRKTGEEFTPLQLLATNPDGTPTGGKFLVYNSALSEFAAVGFEYGYSVGNPDAMVLWEAQFGDFVNGAQSIIDEFISSGEAKWGQLSDVVLLLPHGHEGQGPDHTSGRIERFLQLWAEGSMTIAMPSTPANYFHLLRRHGKDGIQRPLIVFTPKSMLRNKAAVSDIRDFTESKFRSVLEEPMYTDGEGDRNKVTRLLLTSGKIYYELAARKAKENREDVAIVRIEQLAPLPRRRLAETLDRYPNVKEKFWVQEEPANQGAWPSFGLTLPEILPDHFTGLKRISRRAMSAPSSGSSKVHAVEQQEILDTAFG
notes: KGD (two-in-one 2-oxoglutarate dehydrogenase, E2o and E1o domains on one chain), Mycobacterium smegmatis, full-length protein; Crystallised with 2 mM ThDP and 5 mM MgCl2; also called MsKGD; mycobacterial KGD; source: E. coli BL21(DE3)pLysS, purified as previously described
B2: Corynebacterium glutamicum OdhA, full-length (residues 1-1221) (enzyme, Corynebacterium glutamicum ATCC13032, UniProt Q8NRC3 1-1221, looked up)
chain: MSSASTFGQNAWLVDEMFQQFQKDPKSVDKEWRELFEAQGGPNTTPATTEAQPSAPKESAKPAPKAAPAAKAAPRVETKPADKTAPKAKESSVPQQPKLPEPGQTPIRGIFKSIAKNMDISLEIPTATSVRDMPARLMFENRAMVNDQLKRTRGGKISFTHIIGYAMVKAVMAHPDMNNSYDVIDGKPTLIVPEHINLGLAIDLPQKDGSRALVVAAIKETEKMNFSEFLAAYEDIVARSRKGKLTMDDYQGVTVSLTNPGGIGTRHSVPRLTKGQGTIIGVGSMDYPAEFQGASEDRLAELGVGKLVTITSTYDHRVIQGAVSGEFLRTMSRLLTDDSFWDEIFDAMNVPYTPMRWAQDVPNTGVDKNTRVMQLIEAYRSRGHLIADTNPLSWVQPGMPVPDHRDLDIETHNLTIWDLDRTFNVGGFGGKETMTLREVLSRLRAAYTLKVGSEYTHILDRDERTWLQDRLEAGMPKPTQAEQKYILQKLNAAEAFENFLQTKYVGQKRFSLEGAEALIPLMDSAIDTAAGQGLDEVVIGMPHRGRLNVLFNIVGKPLASIFNEFEGQMEQGQIGGSGDVKYHLGSEGQHLQMFGDGEIKVSLTANPSHLEAVNPVMEGIVRAKQDYLDKGVDGKTVVPLLLHGDAAFAGLGIVPETINLAKLRGYDVGGTIHIVVNNQIGFTTTPDSSRSMHYATDYAKAFGCPVFHVNGDDPEAVVWVGQLATEYRRRFGKDVFIDLVCYRLRGHNEADDPSMTQPKMYELITGRETVRAQYTEDLLGRGDLSNEDAEAVVRDFHDQMESVFNEVKEGGKKQAEAQTGITGSQKLPHGLETNISREELLELGQAFANTPEGFNYHPRVAPVAKKRVSSVTEGGIDWAWGELLAFGSLANSGRLVRLAGEDSRRGTFTQRHAVAIDPATAEEFNPLHELAQSKGNNGKFLVYNSALTEYAGMGFEYGYSVGNEDSIVAWEAQFGDFANGAQTIIDEYVSSGEAKWGQTSKLILLLPHGYEGQGPDHSSARIERFLQLCAEGSMTVAQPSTPANHFHLLRRHALSDLKRPLVIFTPKSMLRNKAAASAPEDFTEVTKFQSVINDPNVADAAKVKKVMLVSGKLYYELAKRKEKDGRDDIAIVRIEMLHPIPFNRISEALAGYPNAEEVLFVQDEPANQGPWPFYQEHLPELIPNMPKMRRVSRRAQSSTATGVAKVHQLEEKQLIDEAFEA
notes: OdhA (E2o succinyltransferase and E1o 2-oxoglutarate decarboxylase domains on one chain), C. glutamicum ATCC13032, Uniprot Q8NRC3, residues 1-1221; TEV site (ENLYFQG) between the vector's His6-tag and the N-terminus; In the maps the chain is traced from Pro102; also called corynebacterial OdhA; source: E. coli BL21(DE3), purified (Ni-NTA, TEV cleavage, SEC); not shown: His6, N-terminal, cleaved
B3: OdhAΔ97 (C. glutamicum OdhA residues 98-1221) (domain or fragment, Corynebacterium glutamicum ATCC13032, UniProt Q8NRC3 98-1221, looked up)
chain: KLPEPGQTPIRGIFKSIAKNMDISLEIPTATSVRDMPARLMFENRAMVNDQLKRTRGGKISFTHIIGYAMVKAVMAHPDMNNSYDVIDGKPTLIVPEHINLGLAIDLPQKDGSRALVVAAIKETEKMNFSEFLAAYEDIVARSRKGKLTMDDYQGVTVSLTNPGGIGTRHSVPRLTKGQGTIIGVGSMDYPAEFQGASEDRLAELGVGKLVTITSTYDHRVIQGAVSGEFLRTMSRLLTDDSFWDEIFDAMNVPYTPMRWAQDVPNTGVDKNTRVMQLIEAYRSRGHLIADTNPLSWVQPGMPVPDHRDLDIETHNLTIWDLDRTFNVGGFGGKETMTLREVLSRLRAAYTLKVGSEYTHILDRDERTWLQDRLEAGMPKPTQAEQKYILQKLNAAEAFENFLQTKYVGQKRFSLEGAEALIPLMDSAIDTAAGQGLDEVVIGMPHRGRLNVLFNIVGKPLASIFNEFEGQMEQGQIGGSGDVKYHLGSEGQHLQMFGDGEIKVSLTANPSHLEAVNPVMEGIVRAKQDYLDKGVDGKTVVPLLLHGDAAFAGLGIVPETINLAKLRGYDVGGTIHIVVNNQIGFTTTPDSSRSMHYATDYAKAFGCPVFHVNGDDPEAVVWVGQLATEYRRRFGKDVFIDLVCYRLRGHNEADDPSMTQPKMYELITGRETVRAQYTEDLLGRGDLSNEDAEAVVRDFHDQMESVFNEVKEGGKKQAEAQTGITGSQKLPHGLETNISREELLELGQAFANTPEGFNYHPRVAPVAKKRVSSVTEGGIDWAWGELLAFGSLANSGRLVRLAGEDSRRGTFTQRHAVAIDPATAEEFNPLHELAQSKGNNGKFLVYNSALTEYAGMGFEYGYSVGNEDSIVAWEAQFGDFANGAQTIIDEYVSSGEAKWGQTSKLILLLPHGYEGQGPDHSSARIERFLQLCAEGSMTVAQPSTPANHFHLLRRHALSDLKRPLVIFTPKSMLRNKAAASAPEDFTEVTKFQSVINDPNVADAAKVKKVMLVSGKLYYELAKRKEKDGRDDIAIVRIEMLHPIPFNRISEALAGYPNAEEVLFVQDEPANQGPWPFYQEHLPELIPNMPKMRRVSRRAQSSTATGVAKVHQLEEKQLIDEAFEA
notes: OdhA, C. glutamicum ATCC13032, Uniprot Q8NRC3, residues 98-1221 (without the flexible N-terminal segment); Crystallised with 5 mM CoASH; source: E. coli BL21(DE3), purified (Ni-NTA, TEV cleavage, SEC); not shown: His6, N-terminal, cleaved
B4: Corynebacterium glutamicum OdhI (residues 1-143) (natural protein, Corynebacterium glutamicum ATCC13032, UniProt Q8NQJ3 1-143, looked up)
chain: MSDNNGTPEPQVETTSVFRADLLKEMESSTGTAPASTGAENLPAGSALLVVKRGPNAGARFLLDQPTTTAGRHPESDIFLDDVTVSRRHAEFRINEGEFEVVDVGSLNGTYVNREPRNAQVMQTGDEIQIGKFRLVFLAGPAE
notes: In the map only the FHA domain (Glu40-Ala142) is traceable; source: E. coli BL21(DE3), purified (Ni-NTA, TEV cleavage, SEC); not shown: His6, N-terminal, cleaved

One data set concerns the target T1, OdhAΔ97 (Corynebacterium glutamicum, UniProt Q8NRC3).
T1 construct: gene odhA; N-terminal truncation, residues 98-1221, E. coli BL21(DE3), His6-TEV tag cleaved; homohexamer
Description: crystal structure, […] Å. In kind it is binding. Particulars: co-crystallised with 5 mM CoASH, pH 7.5; E2o acceptor site; pantothenate chain not traced.

The next data set has as its target T2, OdhA (Corynebacterium glutamicum, UniProt Q8NRC3).
T2 construct: full length residues 1-1221, E. coli BL21(DE3), N-terminal His6-TEV tag cleaved for cryo-EM (OdhA-His6 kept for SPR); homohexamer, ~800 kDa
Briefly: cryo-EM structure, […] Å. The data set is classed as binding.

Data set [1] deals with the molecule itself. Briefly: crystal structure; MsKGD (10 mg/ml, 2 mM ThDP, 5 mM MgCl2) co-crystallised with GarA at 1:1 molar ratio; 0.1 M bicine pH 8.0, 30% PEG550MME, 0.2 M NaCl; 4.6 Å.
Data set [2] concerns the molecule itself. Briefly: AUC; sedimentation velocity, 20 °C, 30,000 rpm, seven concentrations from 4 mg/ml to 0.0625 mg/ml, 20 mM Hepes pH 7.5, 500 mM NaCl.
Data set [3] deals with the molecule itself. Description: crystal structure; OdhAΔ97 (26 mg/ml) with 5 mM CoASH; 0.1 M Hepes-NaOH pH 7.5, 5% PEG 4000, 30% MPD; 2.5 Å; protomers related by crystallographic symmetry.
The target in data set [4] is B2. Briefly: cryo-EM structure; single particle, OdhA incubated with OdhI at molar ratio 1:10, then SEC (Superose 6 increase, 20 mM Hepes pH 7.5, 500 mM NaCl); D3 symmetry; 2.3 Å. The following applies: both partners purified.

What is called stoichiometry N is a count of units in the complex or per binding partner.

With `CC(C)(COP(=O)(O)OP(=O)(O)OC[C@H]1O[C@@H](n2cnc3c(N)ncnc32)[C@H](O)[C@@H]1OP(=O)(O)O)[C@@H](O)C(=O)NCCC(=O)NCCS` [CoASH], the “crystal structure, 2.46 Å” value on OdhAΔ97 is listed as “we could model CoASH, which was added to the cocrystallization mixture, as bound”. Moreover, at OdhA (E2o active site, out conformation, ThDP-Mg and acetyl-CoA also bound), the “cryo-EM structure, 2.2 Å” value is “the OdhA-CoASH complex shows the bound CoASH with the pantothenate chain not entering”.

Regarding `CC(=O)SCCNC(=O)CCNC(=O)[C@H](O)C(C)(C)COP(=O)(O)OP(=O)(O)OC[C@H]1O[C@@H](n2cnc3c(N)ncnc32)[C@H](O)[C@@H]1OP(=O)(O)O` [acetyl-CoA], the “cryo-EM structure, 2.2 Å” value on OdhA (allosteric, E1o domain pocket, no ligand added (co-purified from E. coli), activated conformation) is “show an acetyl-CoA molecule bound to E1o allosteric site which could be positioned unambiguously”. B1: in data set [1], the “stoichiometry N” value was found to be 6.

B2: in data set [2], the “stoichiometry N” value amounted to 6. For B3, the “stoichiometry N” value in data set [3] was 6. For the molecule B4, the “stoichiometry N” value in data set [4] came out at 1.
